Experimental findings from article doi:10.1101/2021.12.10.472004 (bioRxiv, 2021) are described below.

Data set [1] deals with 20S proteasome (human (endogenous in red blood cells)) (UniProt P25786). In words: negative stain electron microscopy.
Data set [2] deals with the molecule itself. The experiment in a line: negative stain electron microscopy.

For orientation: stoichiometry N means the number of molecules, sites or subunits per partner or assembly.

Sequence of 20S proteasome (human (endogenous in red blood cells)) (P25786 whole entry, looked up): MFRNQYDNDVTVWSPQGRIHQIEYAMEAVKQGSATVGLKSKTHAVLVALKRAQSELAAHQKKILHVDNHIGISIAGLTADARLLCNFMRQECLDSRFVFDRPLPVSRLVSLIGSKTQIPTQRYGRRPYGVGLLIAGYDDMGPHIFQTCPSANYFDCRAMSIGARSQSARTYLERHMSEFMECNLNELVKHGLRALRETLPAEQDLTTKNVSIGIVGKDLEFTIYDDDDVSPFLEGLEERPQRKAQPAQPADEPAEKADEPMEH

“19S regulatory cap of the proteasome (complex)”: the percent of the observed proteasomes that were singly-capped 26S in data set [1] worked out at 6%.

B1: peroxiredoxin PRDX2 (enzyme, human (endogenous in red blood cells), UniProt P32119 1-198, looked up)
chain: MASGNARIGKPAPDFKATAVVDGAFKEVKLSDYKGKYVVLFFYPLDFTFVCPTEIIAFSNRAEDFRKLGCEVLGVSVDSQFTHLAWINTPRKEGGLGPLNIPLLADVTRRLSEDYGVLKTDEGIAYRGLFIIDGKGVLRQITVNDLPVGRSVDEALRLVQAFQYTDEHGEVCPAGWKPGSDTIKPNVDDSKEYFSKHN
Turning to B1, the “stoichiometry N” value in data set [2] was determined as 10.
